# In patent US20100297606A1:
# Biological target: humanized anti-human IL-6 receptor monoclonal IgG antibody MRA (tocilizumab), untreated
# Test: dot blot of untreated MRA on nitrocellulose (1.5 to 100 ng per spot), biotinylated peptide with HRP-conjugated streptavidin
substance,measurement,value
Fc-III peptide,detection limit,6 ng/spot
